Results from paper PMC9482650, “Quantitative fragmentomics allow affinity mapping of interactomes” (Nature Communications, 2022).
Blank lines part the entries; values can stand above or below the binder they belong to.

Key:
Assay in all cases: holdup assay
Design in all cases: key: below the threshold = too weak to quantify, mostly under pKd 3.1 to 4
DLG4_2, P78352 = target: DLG4_2, P78352
DLG4_3, P78352 = target: DLG4_3, P78352
DLG5_1, Q8TDM6 = target: DLG5_1, Q8TDM6
FRMPD2_1, Q68DX3 = target: FRMPD2_1, Q68DX3
Chain of FRMPD2_1, Q68DX3 (Q68DX3 770-861): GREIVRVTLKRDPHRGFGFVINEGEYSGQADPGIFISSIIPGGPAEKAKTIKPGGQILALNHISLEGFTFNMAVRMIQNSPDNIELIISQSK

FRMPD2_2, Q68DX3 = target: FRMPD2_2, Q68DX3
Chain of FRMPD2_2, Q68DX3 (Q68DX3 944-1038): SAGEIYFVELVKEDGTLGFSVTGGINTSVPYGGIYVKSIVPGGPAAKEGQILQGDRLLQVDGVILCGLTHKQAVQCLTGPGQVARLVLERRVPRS

GRID2IP_1, A4D2P6 = target: GRID2IP_1, A4D2P6
Chain of GRID2IP_1, A4D2P6 (A4D2P6 1-87): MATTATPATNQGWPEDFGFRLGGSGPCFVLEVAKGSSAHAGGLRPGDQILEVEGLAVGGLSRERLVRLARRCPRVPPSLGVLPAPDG

GRID2IP_2, A4D2P6 = target: GRID2IP_2, A4D2P6
Chain of GRID2IP_2, A4D2P6 (A4D2P6 272-370): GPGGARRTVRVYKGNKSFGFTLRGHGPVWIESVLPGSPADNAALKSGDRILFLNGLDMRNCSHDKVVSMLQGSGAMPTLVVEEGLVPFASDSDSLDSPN

GRIP1_5, Q9Y3R0 = target: T1, GRIP1_5, Q9Y3R0
T1 sequence (Q9Y3R0 568-668, limits assumed, looked up): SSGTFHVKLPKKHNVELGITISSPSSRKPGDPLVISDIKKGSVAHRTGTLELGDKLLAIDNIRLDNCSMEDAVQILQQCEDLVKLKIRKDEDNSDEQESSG

IL16_1, Q14005 = target: IL16_1, Q14005
Chain of IL16_1, Q14005 (Q14005 210-306): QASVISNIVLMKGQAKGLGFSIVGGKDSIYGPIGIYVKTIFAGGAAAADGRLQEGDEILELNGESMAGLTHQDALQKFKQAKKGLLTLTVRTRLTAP

LDB3, O75112 = target: LDB3, O75112
Chain of LDB3, O75112 (O75112 1-94): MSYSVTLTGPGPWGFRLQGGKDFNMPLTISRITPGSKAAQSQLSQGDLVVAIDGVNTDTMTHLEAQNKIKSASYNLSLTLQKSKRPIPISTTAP

LNX2_2, Q8N448 = target: T2, LNX2_2, Q8N448
T2 sequence (Q8N448 334-432, limits assumed, looked up): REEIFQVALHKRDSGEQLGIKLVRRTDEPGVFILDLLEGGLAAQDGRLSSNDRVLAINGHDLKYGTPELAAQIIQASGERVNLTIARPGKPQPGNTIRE

MAGI2_2, Q86UL8 = target: MAGI2_2, Q86UL8
Chain of MAGI2_2, Q86UL8 (Q86UL8 410-522): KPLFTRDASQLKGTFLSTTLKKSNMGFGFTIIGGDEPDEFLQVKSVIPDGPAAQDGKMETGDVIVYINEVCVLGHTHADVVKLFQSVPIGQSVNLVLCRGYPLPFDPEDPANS

MAGI2_3, Q86UL8 = target: MAGI2_3, Q86UL8
Chain of MAGI2_3, Q86UL8 (Q86UL8 600-682): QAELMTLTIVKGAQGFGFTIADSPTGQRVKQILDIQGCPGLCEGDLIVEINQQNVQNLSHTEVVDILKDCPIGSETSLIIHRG

MAGI2_5, Q86UL8 = target: MAGI2_5, Q86UL8
Chain of MAGI2_5, Q86UL8 (Q86UL8 915-1017): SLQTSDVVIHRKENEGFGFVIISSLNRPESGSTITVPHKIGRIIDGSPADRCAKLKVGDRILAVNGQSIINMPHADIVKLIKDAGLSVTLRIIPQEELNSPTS

MAGI3_2, Q5TCQ9 = target: MAGI3_2, Q5TCQ9
Chain of MAGI3_2, Q5TCQ9 (Q5TCQ9 398-503): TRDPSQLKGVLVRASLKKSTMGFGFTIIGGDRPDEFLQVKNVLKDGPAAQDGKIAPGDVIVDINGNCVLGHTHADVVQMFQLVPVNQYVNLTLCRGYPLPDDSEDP

MPDZ_12, O75970 = target: T3, MPDZ_12, O75970
T3 sequence (O75970 1857-1958, limits assumed, looked up): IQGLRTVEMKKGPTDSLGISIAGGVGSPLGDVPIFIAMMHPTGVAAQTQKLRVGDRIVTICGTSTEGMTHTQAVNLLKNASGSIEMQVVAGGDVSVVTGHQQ

NHERF3_4, Q5T2W1 = target: T4, NHERF3_4, Q5T2W1
T4 sequence (Q5T2W1 373-468, limits assumed, looked up): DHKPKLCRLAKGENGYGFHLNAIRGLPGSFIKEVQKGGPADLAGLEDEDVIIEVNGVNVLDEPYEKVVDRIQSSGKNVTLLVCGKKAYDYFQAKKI

NOS1, P29475 = target: NOS1, P29475
Chain of NOS1, P29475 (P29475 9-101): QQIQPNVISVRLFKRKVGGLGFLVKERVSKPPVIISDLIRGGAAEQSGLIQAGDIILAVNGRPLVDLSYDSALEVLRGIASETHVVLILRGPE

PARD3_3, Q8TEW0 = target: PARD3_3, Q8TEW0
Chain of PARD3_3, Q8TEW0 (Q8TEW0 582-685): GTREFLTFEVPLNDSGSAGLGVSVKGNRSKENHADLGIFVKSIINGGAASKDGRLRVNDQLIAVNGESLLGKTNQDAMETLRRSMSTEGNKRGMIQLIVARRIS

PDZRN3_1, Q9UPQ7 = target: T5, PDZRN3_1, Q9UPQ7
T5 sequence (Q9UPQ7 244-349, limits assumed, looked up): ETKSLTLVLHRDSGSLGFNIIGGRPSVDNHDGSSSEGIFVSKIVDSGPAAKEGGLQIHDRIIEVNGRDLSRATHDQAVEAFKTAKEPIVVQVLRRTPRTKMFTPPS

SCRIB_2, Q14160 = target: SCRIB_2, Q14160
Chain of SCRIB_2, Q14160 (Q14160 857-960): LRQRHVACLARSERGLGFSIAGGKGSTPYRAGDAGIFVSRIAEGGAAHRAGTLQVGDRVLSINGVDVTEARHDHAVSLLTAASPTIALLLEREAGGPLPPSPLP

SNTG1, Q9NSN8 = target: T6, SNTG1, Q9NSN8
T6 sequence (Q9NSN8 52-150, limits assumed, looked up): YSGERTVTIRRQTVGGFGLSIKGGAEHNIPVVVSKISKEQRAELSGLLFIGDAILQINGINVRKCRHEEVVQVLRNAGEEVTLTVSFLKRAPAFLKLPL

SNTG2, Q9NY99 = target: T7, SNTG2, Q9NY99
T7 sequence (Q9NY99 68-166, limits assumed, looked up): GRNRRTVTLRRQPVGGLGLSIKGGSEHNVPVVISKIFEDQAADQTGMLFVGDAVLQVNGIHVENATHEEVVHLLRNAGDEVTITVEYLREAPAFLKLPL

SNX27, Q96L92 = target: SNX27, Q96L92
SYNJ2BP, P57105 = target: T8, SYNJ2BP, P57105
T8 sequence (P57105 8-110, limits assumed, looked up): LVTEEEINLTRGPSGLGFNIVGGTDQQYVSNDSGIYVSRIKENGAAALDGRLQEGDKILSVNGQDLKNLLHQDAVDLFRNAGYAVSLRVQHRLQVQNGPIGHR

TIAM2, Q8IVF5 = target: T9, TIAM2, Q8IVF5
T9 sequence (Q8IVF5 885-986, limits assumed, looked up): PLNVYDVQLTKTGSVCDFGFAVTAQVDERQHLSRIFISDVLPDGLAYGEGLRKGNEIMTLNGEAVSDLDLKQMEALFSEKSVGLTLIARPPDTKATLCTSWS

TJP1_2, Q07157 = target: TJP1_2, Q07157
Chain of TJP1_2, Q07157 (Q07157 181-274): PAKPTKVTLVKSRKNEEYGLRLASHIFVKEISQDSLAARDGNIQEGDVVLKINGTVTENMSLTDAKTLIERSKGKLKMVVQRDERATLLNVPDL

TX1BP3, O14907 = target: T10, TX1BP3, O14907
T10 sequence (O14907 10-122, limits assumed, looked up): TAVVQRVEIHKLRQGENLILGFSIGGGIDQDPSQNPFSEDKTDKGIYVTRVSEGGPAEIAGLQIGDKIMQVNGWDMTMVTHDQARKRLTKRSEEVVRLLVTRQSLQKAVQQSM

[1] = plain residues with an end cap or a label only (N-terminal biotin on a linker: ttds)
[2] = plain residues with an end cap or a label only (N-terminal biotin on a linker: ahx)

Chain of DLG4_3, P78352 (P78352 306-403): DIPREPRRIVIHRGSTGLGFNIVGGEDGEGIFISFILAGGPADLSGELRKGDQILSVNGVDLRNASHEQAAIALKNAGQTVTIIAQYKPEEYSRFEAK
Chain of DLG5_1, Q8TDM6 (Q8TDM6 617-713): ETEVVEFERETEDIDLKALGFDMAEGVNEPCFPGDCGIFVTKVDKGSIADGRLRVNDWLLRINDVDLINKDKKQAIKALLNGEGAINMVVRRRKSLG
Chain of DLG4_2, P78352 (P78352 155-259): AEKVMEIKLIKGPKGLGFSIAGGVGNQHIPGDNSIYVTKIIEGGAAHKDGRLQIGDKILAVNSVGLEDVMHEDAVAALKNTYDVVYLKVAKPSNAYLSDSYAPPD

pKd (DLG4_2, P78352; [1]): below the threshold | pKd (DLG4_3, P78352; [1]): below the threshold | pKd (DLG5_1, Q8TDM6; [1]): below the threshold | pKd (FRMPD2_1, Q68DX3; [1]): below the threshold | pKd (FRMPD2_2, Q68DX3; [1]): below the threshold | pKd (GRID2IP_1, A4D2P6; [1]): below the threshold | pKd (GRID2IP_2, A4D2P6; [1]): 4.1 | pKd (GRIP1_5, Q9Y3R0; [1]): below the threshold | pKd (IL16_1, Q14005; [1]): below the threshold | pKd (LDB3, O75112; [1]): below the threshold | pKd (LNX2_2, Q8N448; [1]): below the threshold | pKd (MAGI2_2, Q86UL8; [1]): below the threshold | pKd (MAGI2_3, Q86UL8; [1]): below the threshold | pKd (MAGI2_5, Q86UL8; [1]): below the threshold | pKd (MAGI3_2, Q5TCQ9; [1]): 3.55 | pKd (MPDZ_12, O75970; [1]): below the threshold | pKd (NHERF3_4, Q5T2W1; [1]): below the threshold | pKd (NOS1, P29475; [1]): below the threshold | pKd (PARD3_3, Q8TEW0; [1]): below the threshold | pKd (PDZRN3_1, Q9UPQ7; [1]): below the threshold | pKd (SCRIB_2, Q14160; [1]): below the threshold | pKd (SNTG1, Q9NSN8; [1]): below the threshold | pKd (SNTG2, Q9NY99; [1]): 3.84 | pKd (SNX27, Q96L92; [1]): below the threshold | pKd (SYNJ2BP, P57105; [1]): below the threshold | pKd (TIAM2, Q8IVF5; [1]): below the threshold | pKd (TJP1_2, Q07157; [1]): below the threshold | pKd (TX1BP3, O14907; [1]): below the threshold
B1: DGKK, Q5KSL6 (peptide)
chain: DPLTPSRSQL

pKd (DLG4_2, P78352; [2]): below the threshold | pKd (DLG4_3, P78352; [2]): below the threshold | pKd (DLG5_1, Q8TDM6; [2]): below the threshold | pKd (FRMPD2_1, Q68DX3; [2]): below the threshold | pKd (FRMPD2_2, Q68DX3; [2]): below the threshold | pKd (GRID2IP_1, A4D2P6; [2]): below the threshold | pKd (GRID2IP_2, A4D2P6; [2]): below the threshold | pKd (GRIP1_5, Q9Y3R0; [2]): below the threshold | pKd (IL16_1, Q14005; [2]): below the threshold | pKd (LDB3, O75112; [2]): below the threshold | pKd (LNX2_2, Q8N448; [2]): below the threshold | pKd (MAGI2_2, Q86UL8; [2]): below the threshold | pKd (MAGI2_3, Q86UL8; [2]): below the threshold | pKd (MAGI2_5, Q86UL8; [2]): below the threshold | pKd (MAGI3_2, Q5TCQ9; [2]): below the threshold | pKd (MPDZ_12, O75970; [2]): below the threshold | pKd (NHERF3_4, Q5T2W1; [2]): below the threshold | pKd (NOS1, P29475; [2]): below the threshold | pKd (PARD3_3, Q8TEW0; [2]): below the threshold | pKd (PDZRN3_1, Q9UPQ7; [2]): below the threshold | pKd (SCRIB_2, Q14160; [2]): below the threshold | pKd (SNTG1, Q9NSN8; [2]): below the threshold | pKd (SNTG2, Q9NY99; [2]): below the threshold | pKd (SNX27, Q96L92; [2]): 4.16 | pKd (SYNJ2BP, P57105; [2]): below the threshold | pKd (TIAM2, Q8IVF5; [2]): below the threshold | pKd (TJP1_2, Q07157; [2]): below the threshold | pKd (TX1BP3, O14907; [2]): below the threshold
B2: NHERF3, Q5T2W1 (peptide)
chain: SSSNSEDTEM
